Molecular target: the molecule itself
Experiment: cross-linking; in vitro cross-link (BS3 or DSP) of purified protein in the presence of calcium; densitometry after DSP

B1: hippocalcin(A190T) (natural protein)
chain: not shown
notes: human hippocalcin (HPCA) with the dystonia-causing mutation A190T, in pGEX-6P1; unmyristoylated; Mutation found homozygous in DYT2 dystonia patients; also called HPCA A190T; A190T mutant; source: E. coli BL21(DE3) STAR, purified (GST resin, PreScission cleavage, Superdex 200); not shown: GST, N-terminal, cleaved
B1: binds.

B2: hippocalcin(T71N) (natural protein)
chain: not shown
notes: human hippocalcin (HPCA) with the dystonia-causing mutation T71N, in pGEX-6P1; unmyristoylated; Mutation found homozygous in DYT2 dystonia patients; also called HPCA T71N; T71N mutant; source: E. coli BL21(DE3) STAR, purified (GST resin, PreScission cleavage, Superdex 200); not shown: GST, N-terminal, cleaved
B2: binds.

— publication PMC5886089, “Biophysical and functional characterization of hippocalcin mutants responsible for human dystonia” (Human Molecular Genetics, 2017)
